This is an account of results in US20260042834A1 (HBM ALPHA THERAPEUTICS, published 2026).

Residue numbers refer to the chain shown, from its start. Read-outs that look alike come from different tables or passages of the source.

One experiment deals with T1, CRH (CT-Biotin) (human and mouse, biotin on the added C-terminal K (-K-Biotin)).
T1 construct: also called Peptide 4 (CRH-Biotin); C-terminally biotinylated corticotropin-releasing hormone
T1 peptide: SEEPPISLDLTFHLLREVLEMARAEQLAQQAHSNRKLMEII
In words: ELISA, C-terminally biotinylated CRH on streptavidin-coated plate. How it is done: (§1) Streptavidin (Thermo, Cat: 21125) was diluted in PBS to a concentration of 2 μg/ml. 100 μl of diluted streptavidin was added per well to ELISA microplates, and the plates were incubated overnight at 4° C. […] 100 μL of 3,3′,5,5′-tetramethylbenzidine (TMB) substrate (Biopanda, Cat: TMB-S-003) was added, and the plates were incubated at room temperature for 15 minutes. 100 μL of ELISA stopping solution (Solarbio, Cat #: C1058) was added to terminate the reaction, and the optical density at 450 nm (OD450 nm) was determined by an ELISA plate reader (Molecular Devices, Spectra max 384 plus).
Background: An ELISA detects its analyte on a solid surface through an enzyme-linked reagent.

The target in another experiment is T2, CRH (NT-Biotin) (human and mouse, not fully specified; biotin at the N-terminus).
T2 construct: also called Biotin-CRH; N-terminally biotinylated corticotropin-releasing hormone
T2 peptide: T1 peptide
The experiment is described as follows: ELISA, N-terminally biotinylated CRH on streptavidin-coated plate. How it is done: as §1

Experiment [1] concerns the target T3, corticotropin-releasing hormone (CRH) peptide (human and mouse, not fully specified).
T3 peptide: T1 peptide
The experiment is described as follows: cell-based or functional assay.

Experiment [2] concerns the target T4, corticotropin-releasing hormone (CRH) peptide (human and mouse (same sequence), not fully specified).
T4 peptide: T1 peptide
In words: cell-based or functional assay.

For experiment [3], the target named is T4, corticotropin-releasing hormone (CRH) …. The experiment is described as follows: cell-based or functional assay.

As a reminder, the EC50 is the concentration giving half of the maximal effect.

B1: PR301788 (antibody, human IgG1, kappa, V domains shown)
VH: EMKLEESGGGLVQPGGSMKLSCVASGFTFSNYWMNWVRQSPEKGLEWVAEIRLKSNNYATHYAESVKGRFTISRDDSKSSVYLQMNNLRAEDTGIYYCTIGTLVYWGQGTLVTVSA
VL: DIVLTQSPASLAVSLGQRATISCRASQSVSTSTYNYMHWFQQKPGQPPKLLIKFASNLESGVPARFSGSGSGTDFTLNIHPVEEEDTATFYCQHSWEIPYTFGGGTKLEIKR
notes: Mouse variable domains, expressed recombinantly with human IgG1 wildtype Fc; also called Series 5 mAb
Consider B1, for which the values for the EC50 in the experiment with CRH (CT-Biotin) and with CRH (NT-Biotin) were 0.011 nM and 0.018 nM, respectively. In addition, the “hCRHR1 Reporter IC50” value in experiment [1] was found to be 0.46 nM.

B2: PR302309-1 (antibody, human IgG1, kappa, V domains shown)
VH: QIQLVQSGPELKKPGETVKISCKASGYTFTNYGMNWVKQAPGKVLKWMGWINTYTGEPIYTDDFKGRFAFSLETSASTAYLQINNLKNEDTATYFCSRSTMITTGGVFAYWGQGTLVTVSA
VL: DVVMTQSPLSLPVTLGQPASISCRSSQTIVHSDGNTYLEWFQQRPGQSPRRLIYKVSNRFSGVPDRFSGSGSGTDFTLKISRVEAEDVGVYYCFQGSHVPWTFGGGTKVEIKR
As for B2, in experiment [2], the “hCRHR1 Luciferase Reporter Assay IC50” value was determined as 4.42 nM.

B3: PR302309-10 (antibody, human IgG1, kappa, V domains shown)
VH: QIQLVQSGSELKKPGASVKVSCKASGYTFTNYGMNWVRQAPGQGLEWMGWINTYTGEPIYTDDFKGRFVFSLDTSVSTAYLQISSLKAEDTAVYYCSRSTMITTGGVFAYWGQGTLVTVSS
VL: B2 VL with S7T, P12S, L15P, F41Y, Q42L, R44K, R50Q, R51L, V88L
Consider B3, for which, in experiment [2], the “hCRHR1 Luciferase Reporter Assay IC50” value was found to be 3.2 nM.

B4: PR302309-5 (antibody, human IgG1, kappa, V domains shown)
VH: B2 VH
VL: B2 VL with V2I, S7T, L11S, F41L, S48P, R51L, S72A
Consider B4, for which the “hCRHR1 Luciferase Reporter Assay IC50” value in experiment [2] was determined as 0.454 nM.

B5: PR302309-6 (antibody, human IgG1, kappa, V domains shown)
VH: B2 VH
VL: B2 VL with S7T, L11S, F41Y, S48P, R51L, S72A, V88L
As to B5, the “hCRHR1 Luciferase Reporter Assay IC50” value in experiment [2] was determined as 1.08 nM.

B6: PR302309-19 (antibody, human IgG1, kappa, V domains shown)
VH: QIQLVQSGAEVKKPGASVKVSCKASGYTFTNYGMNWVRQAPGQRLEWMGWINTYTGEPIYTDDFKGRVTITLDTSASTAYMELSSLRSEDTAVYYCSRSTMITTGGVFAYWGQGTLVTVSS
VL: B2 VL with F41Y, R51L, V88L
In the case of B6, in experiment [2], the “hCRHR1 Luciferase Reporter Assay IC50” value was found to be 4.83 nM.

B7: PR302309-20 (antibody, human IgG1, kappa, V domains shown)
VH: B6 VH
VL: B2 VL with S7T, P12S, L15P, F41Y, Q42L, R44K, R50Q, R51L, V88L
With B7, the “hCRHR1 Luciferase Reporter Assay IC50” value in experiment [2] came to 3.07 nM.

B8: PR302309-18 (antibody, human IgG1, kappa, V domains shown)
VH: B6 VH with I2V, L72R, S97A
VL: B2 VL with F41Y, R51L, V88L
B8: in experiment [2], the “hCRHR1 Luciferase Reporter Assay IC50” value was determined as 1.73 nM.

B9: PR302309-9 (antibody, human IgG1, kappa, V domains shown)
VH: B3 VH
VL: B2 VL with V2I, S7T, P12S, L15P, F41Y, Q42L, R44K, R50Q, R51L
For B9, the “hCRHR1 Luciferase Reporter Assay IC50” value in experiment [2] is 6.08 nM.

B10: PR302309-17 (antibody, human IgG1, kappa, V domains shown)
VH: B3 VH with I2V, S97A
VL: B2 VL with F41Y, R51L, V88L
As for B10, the “hCRHR1 Luciferase Reporter Assay IC50” value in experiment [2] is 6.69 nM.

B11: PR302309-7 (antibody, human IgG1, kappa, V domains shown)
VH: B3 VH
VL: B2 VL
Consider B11, for which the “hCRHR1 Luciferase Reporter Assay IC50” value in experiment [2] is 6.38 nM.

B12: PR302309-11 (antibody, human IgG1, kappa, V domains shown)
VH: B3 VH
VL: B2 VL with V2I, S7T, L11S, F41L, S48P, R51L, S72A
With B12, in experiment [2], the “hCRHR1 Luciferase Reporter Assay IC50” value was 2.12 nM.

B13: PR302309-3 (antibody, human IgG1, kappa, V domains shown)
VH: B2 VH
VL: B2 VL with V2I, S7T, P12S, L15P, F41Y, Q42L, R44K, R50Q, R51L
As for B13, in experiment [2], the “hCRHR1 Luciferase Reporter Assay IC50” value was found to be 2.22 nM.

B14: PR302309-2 (antibody, human IgG1, kappa, V domains shown)
VH: B2 VH
VL: B2 VL with F41Y, R51L, V88L
For the molecule B14, the “hCRHR1 Luciferase Reporter Assay IC50” value in experiment [2] stood at 0.773 nM.

B15: PR302309-8 (antibody, human IgG1, kappa, V domains shown)
VH: B3 VH
VL: B2 VL with F41Y, R51L, V88L
For the molecule B15, the “hCRHR1 Luciferase Reporter Assay IC50” value in experiment [2] amounted to 1.7 nM.

B16: PR302309-4 (antibody, human IgG1, kappa, V domains shown)
VH: B2 VH
VL: B2 VL with S7T, P12S, L15P, F41Y, Q42L, R44K, R50Q, R51L, V88L
Turning to B16, the “hCRHR1 Luciferase Reporter Assay IC50” value in experiment [2] came out at 1.26 nM.

B17: PR302309-21 (antibody, human IgG1, kappa, V domains shown)
VH: B6 VH
VL: B2 VL with S7T, L11S, F41Y, S48P, R51L, S72A, V88L
With B17, the “hCRHR1 Luciferase Reporter Assay IC50” value in experiment [2] stood at 8.44 nM.

B18: PR302309-12 (antibody, human IgG1, kappa, V domains shown)
VH: B3 VH
VL: B2 VL with S7T, L11S, F41Y, S48P, R51L, S72A, V88L
In the case of B18, in experiment [2], the “hCRHR1 Luciferase Reporter Assay IC50” value was determined as 4.47 nM.

B19: PR301612 (antibody, human IgG1, kappa, V domains shown)
VH: EVKLEESGGGLVQPGGSIKLSCVASGFTFSGAWMAWVRQSPEKGLEWVAEIKNKANNHATFYAESVKGRFIISRDDSKSSVYLQMNSLRAEDTGTYYCTLPDVWGTGTTVTVSS
VL: QIVLTQSPAIMSASPGERVTISCSASSSVSNMYWYLQKPGSSPKPWIYRTSNLASGVPARFSGSGSGTSYSLTISSMEAEDVATYYCQQYHSFPRTFGGGTKLEIKR
notes: Mouse variable domains, expressed recombinantly with human IgG1 wildtype Fc; also called Series 4 mAb
Molecule B19 had a half-maximal effective concentration (EC50) in the experiment with CRH (CT-Biotin) of 0.033 nM. The “hCRHR1 Reporter IC50” value in experiment [1] was determined as 18.1 nM.

B20: PR302334-26 (antibody, human IgG1, kappa, V domains shown)
VH: EVQLVESGGGLVQPGGSLRLSCAASGFTFSTYAMSWVRQAPGKGLEWVASIRSGGTTYYPDSVKGRFTISRDNSKNSLYLQMNSLRAEDTAVYYCTRGIDWGQGTTVTVSS
VL: DIVMTQSPDSLAVSLGERATINCKASQSVNNDVAWYQQKPGQPPRLLIYYASNRYTGVPDRFSGSGSGTDFTLTISSLQAEDLAVYFCQQDYSSWTFGGGTKVEIKR
In the case of B20, in experiment [3], the “hCRHR1 Luciferase Reporter Assay IC50” value came to 1.1 nM and the “mCrhr1 Luciferase Reporter Assay IC50” value was 1.34 nM.

B21: PR302334-27 (antibody, human IgG1, kappa, V domains shown)
VH: B20 VH
VL: DIQMTQSSLSASVSLGDRVTITCKASQSVNNDVAWYQQKPGKAPRLLIYYASNRYTGVPSRFSGSGSGTDFTFTISSLQPEDLATYFCQQDYSSWTFGGGTKVEIKR
Consider B21, for which, in experiment [3], the “hCRHR1-Luc 0.5 nM CRH IC50” value was determined as 1.36 nM, the “hCRHR1 Luciferase Reporter Assay IC50” value is 1.36 nM and the “mCrhr1 Luciferase Reporter Assay IC50” value came to 2.27 nM.

B22: PR302309-13 (antibody, human IgG1, kappa, V domains shown)
VH: B3 VH with I2V, S97A
VL: DVLMAQTPLSLPVSLGDQASISCRSSQTIVHSDGNTYLEWYLQKPGQSPKLLIYKVSNRFSGVPDRFSGSGSGTDFTLKISRVEAEDLGVYYCFQGSHVPWTFGGGTKLEIKR
As for B22, the “hCRHR1 Luciferase Reporter Assay IC50” value in experiment [2] came out at 7.23 nM.

B23: PR302309-14 (antibody, human IgG1, kappa, V domains shown)
VH: B3 VH
VL: B22 VL
Turning to B23, the “hCRHR1 Luciferase Reporter Assay IC50” value in experiment [2] stood at 1.68 nM.

B24: PR302309-15 (antibody, human IgG1, kappa, V domains shown)
VH: B6 VH with I2V, L72R, S97A
VL: B22 VL
On to B24, for which the “hCRHR1 Luciferase Reporter Assay IC50” value in experiment [2] amounted to 10.5 nM.

B25: PR302309-16 (antibody, human IgG1, kappa, V domains shown)
VH: B6 VH
VL: B22 VL
Take B25: in experiment [2], the “hCRHR1 Luciferase Reporter Assay IC50” value is 5.47 nM.

B26: PR004289 (antibody, human IgG1, kappa, V domains shown)
VH: EVQLVESGGVLVQPGGSLRLSCAASGFIFSSYWMTWVRQAPGKGLEWVANIKQDGSEKYYVDSVKGRFTISRDNAKNSLFLQMNSLRAEDTAVYYCARTLIFDYWGQGTLVTVSS
VL: DIVMTQSPLSLPVTPGEPASISCRSSQSLLHSTGYNSLEWYLQKPGQSPQLLIYLGSNRASGVPDRFSGSGSGTDFTLKISRVEAEDVGIYYCMQTLQTPITFGQGTRLEIKR
notes: Expressed recombinantly with human IgG1 wildtype Fc; also called Hybridoma Clone 16g2; Series 1 mAb
On to B26, for which the concentration giving a half-maximal response (EC50) with CRH (CT-Biotin) and in the experiment with CRH (NT-Biotin) was 0.023 nM throughout. Moreover, in experiment [1], the “hCRHR1 Reporter IC50” value amounted to 3.13 nM.

B27: PR006669 (antibody, human IgG1, kappa, V domains shown)
VH: EVQLVESGGGLVQPGGSLRLSCAASGFTFSDNWMSWVRQAPGKGLEWVANIKQDGSENYYVDSVKGRFTISRDNAKNSLYLQMNSLRAEDTAVYYCSRGLALWGWGQGTLVTVSS
VL: B26 VL with Q6H, E17D, S37Y, E39D, I80F, S81I, I90V, T96A, I101Y, R108K
For the molecule B27, the “hCRHR1 Reporter IC50” value in experiment [1] is 7.38 nM.
